This note sets out measurements from PMC6900284.

The target in this data set is CPSF160;WDR33;CPSF30;Fip1 (human;human;human;human, UniProt Q10570;Q9C0J8;O95639-3;Q6UN15-4 1-1443;1-410;1-178;130-195, |||). Kind of data set: cryo-EM structure.
Chain of CPSF160;WDR33;CPSF30;Fip1 (Q10570 whole entry, chain 1 of 4): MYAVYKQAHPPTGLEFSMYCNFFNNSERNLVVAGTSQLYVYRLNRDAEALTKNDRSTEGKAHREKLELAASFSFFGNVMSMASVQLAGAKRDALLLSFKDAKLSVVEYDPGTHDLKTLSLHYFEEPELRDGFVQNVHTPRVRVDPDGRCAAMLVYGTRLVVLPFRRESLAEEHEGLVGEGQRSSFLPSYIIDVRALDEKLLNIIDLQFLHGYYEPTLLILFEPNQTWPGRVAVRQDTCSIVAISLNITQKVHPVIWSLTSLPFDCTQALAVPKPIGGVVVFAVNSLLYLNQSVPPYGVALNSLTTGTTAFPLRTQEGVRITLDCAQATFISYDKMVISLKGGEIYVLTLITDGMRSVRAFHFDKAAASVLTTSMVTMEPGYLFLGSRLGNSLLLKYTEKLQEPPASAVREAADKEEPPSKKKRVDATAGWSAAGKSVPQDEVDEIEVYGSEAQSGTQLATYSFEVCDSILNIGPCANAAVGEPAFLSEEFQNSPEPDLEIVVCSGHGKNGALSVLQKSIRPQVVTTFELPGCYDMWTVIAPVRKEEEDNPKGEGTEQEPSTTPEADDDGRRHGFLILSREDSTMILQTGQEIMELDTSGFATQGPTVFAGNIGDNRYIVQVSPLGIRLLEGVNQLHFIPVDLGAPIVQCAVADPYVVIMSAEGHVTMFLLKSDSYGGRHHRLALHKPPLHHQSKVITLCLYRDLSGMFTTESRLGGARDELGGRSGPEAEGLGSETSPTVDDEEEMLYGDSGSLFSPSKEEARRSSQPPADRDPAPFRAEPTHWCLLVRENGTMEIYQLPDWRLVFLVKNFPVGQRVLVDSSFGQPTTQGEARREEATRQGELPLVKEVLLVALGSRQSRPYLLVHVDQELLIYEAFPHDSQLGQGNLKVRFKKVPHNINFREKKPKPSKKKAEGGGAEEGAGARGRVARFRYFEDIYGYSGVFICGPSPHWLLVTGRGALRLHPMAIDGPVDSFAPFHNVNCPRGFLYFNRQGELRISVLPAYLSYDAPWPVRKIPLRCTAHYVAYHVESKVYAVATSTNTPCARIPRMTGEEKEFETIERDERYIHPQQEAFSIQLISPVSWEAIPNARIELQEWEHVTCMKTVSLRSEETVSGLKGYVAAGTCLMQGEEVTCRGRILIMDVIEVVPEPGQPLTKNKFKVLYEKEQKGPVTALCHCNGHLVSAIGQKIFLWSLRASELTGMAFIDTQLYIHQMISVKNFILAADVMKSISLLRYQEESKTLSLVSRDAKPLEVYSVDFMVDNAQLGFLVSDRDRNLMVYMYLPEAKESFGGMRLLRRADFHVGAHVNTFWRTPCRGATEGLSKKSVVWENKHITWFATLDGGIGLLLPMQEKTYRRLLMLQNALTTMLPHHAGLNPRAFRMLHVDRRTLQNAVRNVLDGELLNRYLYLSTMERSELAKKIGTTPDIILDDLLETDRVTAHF
Chain of CPSF160;WDR33;CPSF30;Fip1 (Q9C0J8 1-410, chain 2 of 4): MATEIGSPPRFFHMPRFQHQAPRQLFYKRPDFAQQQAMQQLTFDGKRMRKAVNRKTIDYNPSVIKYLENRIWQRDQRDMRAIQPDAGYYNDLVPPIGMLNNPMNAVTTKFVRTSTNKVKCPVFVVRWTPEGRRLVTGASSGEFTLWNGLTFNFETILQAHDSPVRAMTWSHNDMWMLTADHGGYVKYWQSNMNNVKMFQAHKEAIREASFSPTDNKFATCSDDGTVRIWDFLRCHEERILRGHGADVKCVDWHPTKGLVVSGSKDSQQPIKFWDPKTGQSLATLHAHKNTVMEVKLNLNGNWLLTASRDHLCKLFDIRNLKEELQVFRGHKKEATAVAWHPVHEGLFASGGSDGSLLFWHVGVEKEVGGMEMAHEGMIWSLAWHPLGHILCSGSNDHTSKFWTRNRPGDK
Chain of CPSF160;WDR33;CPSF30;Fip1 (O95639 1-178, chain 3 of 4): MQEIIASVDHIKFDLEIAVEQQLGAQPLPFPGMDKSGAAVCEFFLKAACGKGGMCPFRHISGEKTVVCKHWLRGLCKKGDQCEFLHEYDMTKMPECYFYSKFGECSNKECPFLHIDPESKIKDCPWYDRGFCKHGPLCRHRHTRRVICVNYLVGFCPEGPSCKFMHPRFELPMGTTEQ
Chain of CPSF160;WDR33;CPSF30;Fip1 (Q6UN15 145-210, chain 4 of 4): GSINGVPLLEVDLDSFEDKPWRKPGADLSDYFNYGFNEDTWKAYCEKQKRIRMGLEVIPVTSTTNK

Turning to ACAAUAAAGG (ssRNA) [10-mer PAS RNA], the binding result is reported as “binds”.
